The target of assay [1] is P1-deoxy. Briefly: SPR.
Assay [2] concerns the target P1-Hpu. Put plainly: SPR. On the technique in general: In SPR one partner is held on a chip, and binding of the other changes the refractive index at the surface.
For assay [3], the target named is P2-deoxy. Briefly: SPR, Biacore T200, peptide captured, Fab flowed.
The target in assay [4] is P1-deoxy. Briefly: SPR, Biacore T200, peptide captured, Fab flowed.
Assay [5] has as its target P1-Hpu. Briefly: SPR, Biacore T200, peptide captured, Fab flowed.
In assay [6] the target is P5-Hpu. Briefly: SPR, Biacore T200, peptide captured, Fab flowed.
Assay [7] addresses P4-Hpu. Briefly: SPR, Biacore T200, peptide captured, Fab flowed.
Assay [8] concerns the target P2-Hpu. Put plainly: SPR, Biacore T200, peptide captured, Fab flowed.
Assay [9] has as its target P2-deoxy. Put plainly: SPR, ratio of KD values.
The target in assay [10] is P1-deoxy. Put plainly: SPR, ratio of KD values.
In assay [11] the target is P1-Hpu. Put plainly: SPR, ratio of KD values.
Assay [12] concerns the target P5-Hpu. Briefly: SPR, ratio of KD values.
For assay [13], the target named is P4-Hpu. Put plainly: SPR, ratio of KD values.
The target in assay [14] is P2-Hpu. Briefly: SPR, ratio of KD values.
The target in assay [15] is P3-Hpu. Put plainly: SPR, Biacore T200, peptide captured, Fab flowed.
Assay [16] addresses P3-Hpu. Briefly: SPR, ratio of KD values.

Substitutions are numbered along the chain they refer to. Where only a bound is given, the exact number is not on record here.

B1: FabHpu98.61 (Fab)
heavy: QSVEESGGRLVTPGTPLTLTCTVSACSLYHCTMNWVRQAPGKGLEWIGDIYTDGNTYYANWAKGRFTISKTSTTVDLKITSPTTEDTATYFCARDSWDASSYYGLDLWGQGTLVTVSSGQPKGPSVFPLAPCCGDTPSSTVTLGCLVKGYLPEPVTVTWNSGTLTNGVRTFPSVRQSSGLYSLSSVVSVTSSSQPVTCNVAHPATNTKVDKTVAPSTCSKPT
light: AIKMTQTPSSVSAAVGGTVTINCQASEDIKRYLAWYQQKPGQPPKLLIYAASKLASGVSSRFKGSGSGTEYTLTISGVQCDDAATYYCQQGYTSSNVNNAFGGGTEVVVKGDPVAPTVLIFPPAADQVATGTVTIVCVANKYFPDVTVTWEVDGTTQTTGIENSKTPQNSADCTYNLSSTLTLTSTQYNSHKEYTCKVTQGTTSVVQSFNRGDC
For the molecule B1, the Kd (in general, the concentration at which binding is half-saturated) with P1-deoxy [1] turned out to be 20 nM; in the assay with P1-Hpu [2], 18 nM; with P2-deoxy [3], 86 nM; in the assay with P1-deoxy [4], 17 nM; with P1-Hpu [5], 15 nM; with P5-Hpu [6], 70 nM. Further, the equilibrium dissociation constant (Kd) in the assay with P4-Hpu [7] is 91 nM; with P2-Hpu [8], 78 nM. The Fold improvement in KD over parent FabHpu98 with P2-deoxy [9] came to 1.8 fold; with P1-deoxy [10], 6.9 fold; with P1-Hpu [11], 7.9 fold; with P5-Hpu [12], 2.5 fold; in the assay with P4-Hpu [13] it was 2.5 fold; in the assay with P2-Hpu [14] it was 2.6 fold.

B2: FabHpu24 (Fab)
heavy: QEQLKESGGRLVAPGTPLTLTCTVSGFDISDYAMIWVRQAPGKGLEWIGIIYGGSNKLAYAKWAKGRFTISRTSTTVDLKITSPTTEDTATYFCARGYGSMDGYDRLNLWGQGTLVTVSSGQPKGPSVFPLAPCCGDTPSSTVTLGCLVKGYLPEPVTVTWNSGTLTNGVRTFPSVRQSSGLYSLSSVVSVTSSSQPVTCNVAHPATNTKVDKTVAPSTCSKPT
light: AAVLTQTPSPVSAAVGGTVTISCQSSETVYRGDWLSWFQKKPGQPPKLLIYDASYLASGVSSRFSGSGSGTHFTLTISGVQCDDAATYYCLGGYYDDADDTFGGGTEVVVKGDPVAPTVLIFPPAADQVATGTVTIVCVANKYFPDVTVTWEVDGTTQTTGIENSKTPQNSADCTYNLSSTLTLTSTQYNSHKEYTCKVTQGTTSVVQSFNRGDC
B2: the dissociation constant (Kd) was found to be 192 nM with P1-Hpu [5], 96 nM in the assay with P5-Hpu [6], 541 nM with P4-Hpu [7] and 157 nM with P2-Hpu [8].

B3: FabHpu24.B (Fab)
heavy: B2 heavy with G54V, S55I, K57D
light: B2 light with Q24R, S26R, E27Q, T28R, R31L, Y55F, L56R, A57G, S58D
Take B3: the dissociation constant Kd in the assay with P1-Hpu [5] was determined as 6 nM; with P5-Hpu [6], 7 nM; with P4-Hpu [7], 32 nM; in the assay with P3-Hpu [15] it was 186 nM; with P2-Hpu [8], 13 nM. The Fold improvement in KD over parent FabHpu24 was 32 fold with P1-Hpu [11]; 13 fold in the assay with P5-Hpu [12]; 17 fold in the assay with P4-Hpu [13]; above 5 fold with P3-Hpu [16]; 12 fold in the assay with P2-Hpu [14].

For the origin of these results see patent US20210072250A1.
